In article PMC7749166 (Communications Biology, 2020):
Substitutions are numbered along the chain they refer to.

Assays:
[1] = system: C5aR with mutations Y11F and Y14F; conditions: cited from earlier work
Excerpt: In line with our results, intrinsic binding energies have been previously described for intramolecular binding events inv ...

C5aR^D282A = target: T1, C5aR^D282A (Homo sapiens, UniProt P21730, D282A); assay: FD-/FV-based AFM dynamic force spectroscopy vs D282A mutant; type: binding
T1 construct: Flag (N); His8 (C); made in house; host or cells: HEK-293S cells (BacMam baculovirus)
T1 sequence (P21730 1-350 D282A): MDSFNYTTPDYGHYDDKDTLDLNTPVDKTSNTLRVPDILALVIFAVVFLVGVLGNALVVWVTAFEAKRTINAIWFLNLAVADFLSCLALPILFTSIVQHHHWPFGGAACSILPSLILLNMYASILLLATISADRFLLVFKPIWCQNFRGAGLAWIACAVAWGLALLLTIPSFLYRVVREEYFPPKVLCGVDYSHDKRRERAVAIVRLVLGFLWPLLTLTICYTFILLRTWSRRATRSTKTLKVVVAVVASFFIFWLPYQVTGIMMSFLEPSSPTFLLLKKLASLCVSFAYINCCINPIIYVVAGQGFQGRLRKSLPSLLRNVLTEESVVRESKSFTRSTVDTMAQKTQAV
Description: (§1) The reconstituted C5aR sample solution (either wt-C5aR or mutants) was 20-fold diluted in fusion buffer solution (20 mM HEPES, 300 mM NaCl, and 25 mM MgCl2) and adsorbed on freshly cleaved mica for 15 min. After rinsing with imaging buffer (20 mM HEPES and 300 mM NaCl) the sample was transferred to the AFM.
(§2) Rectangular Si3N4 AFM cantilevers with silicon tips (BioLever mini, Bruker) were first cleaned with chloroform for 10 min, rinsed with ethanol, N2 dried, and then cleaned for 15 min in an ultraviolet radiation and ozone cleaner (UV-O, Jetlight, CA, USA). For the aminofunctionalization, the cantilevers were immersed in an ethanolamine solution (3.3 g ethanolamine in 6.6 ml DMSO) overnight and then rinsed in DMSO (3 × 1 min) and ethanol (3 × 1 min), followed by N2 drying. This was followed by the N-hydroxysuccinimide (NHS)-PEG27-acetal linker attachment. A 1 mg portion of the NHS-PEG27-acetal linker (JKU, Linz, Austria) was diluted in 0.5 ml chloroform with 30 µl triethylamine and the cantilevers were immersed in this solution for 2 h. After three rinsing steps of 10 min in chloroform and N2 drying, the cantilevers were immersed in a 1% citric acid solution for 10 min, rinsed with pure water (3 × 5 min), and dried with N2 once more. tris-NTA-derivatized AFM cantilevers were obtained by pipetting 100 µl of a 100 µM tris-N-nitrilotriacetic amine trifluoroacetate (Toronto Research Chemicals, Canada) (tris-NTA) solution onto the cantilevers, followed by the addition of 2 μl of a freshly prepared 1 M NaCNBH3 solution. The cantilevers were incubated for 1 h, then 5 μl of a 1 M ethanolamine solution pH 8.0 was added for 10 min to quench the reaction. tris-NTA cantilevers were further used to obtain C5a-derivatized tips. For this purpose, 100 μl of a 1 μM C5a protein solution was premixed with 5 μl NiCl2 5 mM and the mixture was pipetted onto the tris-NTA cantilevers. After 2 h of incubation time, the cantilevers were washed in HEPES buffer 3 × 5 min.
(§3) (JKU, Linz, Austria) dissolved in 0.5 ml of chloroform with 30 μl of triethylamine, then washed with chloroform and dried with N2. […] After 3 h of reaction, cantilevers were washed with PBS 3 × 5 min.
AFM experiments were performed with a Multimode 8 AFM equipped with a Nanoscope V controller (Bruker, Santa Barbara, CA, USA) operated in “PeakForce Tapping QNM mode”. All measurements were carried out in imaging buffer at room temperature (≈24 °C). […]
In FD-based AFM measurements, the AFM cantilever is oscillated in a sinusoidal manner well below its resonance frequency, while the sample surface is contoured pixel-by-pixel. For each approach–retraction cycle of the oscillating cantilever, a force–distance curve is recorded. […] Adhesion maps were recorded using a scan rate of 0.2 Hz and 256 × 256 pixels. […]

C5aR2 = conditions: cited from earlier work
Excerpt: Our mechanistic insights into the C5a binding process to C5aR could offer a new framework to a better understanding or the intriguing functional divergence between the two C5a receptors and could potentially allow delinea ...

human C5aR (C5aR^WT) [2] = target: T2, human C5aR (C5aR^WT) (Homo sapiens, UniProt P21730); assay: FD-/FV-based AFM dynamic force spectroscopy (FNdY model) of ligand-functionalized tip vs wild-type C5aR; type: binding; conditions: FNdY fit
T2 construct: Flag (N); made in house; host or cells: HEK-293S GnTI- cells (BacMam baculovirus)
T2 sequence (P21730 1-350): T1 sequence (P21730 1-350 D282A) with A282D
Description: as §1, §2, §3
(§4) AFM experiments were performed with a Multimode 8 AFM equipped with a Nanoscope V controller (Bruker, Santa Barbara, CA, USA) operated in “PeakForce Tapping QNM mode”. All measurements were carried out in imaging buffer at room temperature (≈24 °C). For the high-resolution characterization of C5aR topographical features, triangular Si3N4 cantilevers (Scanasyst-Fluid+, Bruker) with a sharpened tetrahedral silicon tip of ≈2 nm radius, nominal spring constants of 0.35 N m^−1, and resonance frequency in liquid of ≈75 kHz were used. Multiparametric FD-based AFM measurements with derivatized tips were carried out using BioLever mini cantilevers (Bruker, Santa Barbara) having nominal spring constants of 0.1 N m^−1 and resonance frequency in liquid of ≈25 kHz. The spring constant was calibrated at the end of each experiment for all cantilevers used in this study using the thermal noise method.
(§5) In FD-based AFM measurements, the AFM cantilever is oscillated in a sinusoidal manner well below its resonance frequency, while the sample surface is contoured pixel-by-pixel. For each approach–retraction cycle of the oscillating cantilever, a force–distance curve is recorded. Multiparametric FD-based AFM height, Young’s modulus, and adhesion maps are then obtained from a pixel-by-pixel reconstruction of the acquired data. Overview FD-based AFM maps were acquired by scanning the sample at 1 Hz and a resolution of 512 × 512 pixels, using a force setpoint of ≈150 pN, a 2 kHz oscillation frequency, and a peak-to-peak oscillation amplitude of 100 nm. Adhesion maps were recorded using a scan rate of 0.2 Hz and 256 × 256 pixels. The functionalized AFM cantilever was oscillated at 0.25 kHz with peak-to-peak oscillation amplitudes of 100 nm.

human C5aR (C5aR^WT) [3] = assay: as above; type: binding; conditions: sum of C5aR + PMX53 and C5aR∆Tyr values
Description: as §1, §2, §3, §4, §5

[4] = FNdY fit, ± s.e.m., ligand-derivatized AFM tip, 20 mM HEPES, 300 mM NaCl, ≈24 °C
[5] = C5a tip vs C5aR^WT incubated with PMX53 (effector site blocked; probes binding site), ± s.e.m.

B1: C5a: C5a, a large 74-amino acid glycoprotein; endogenous ligand of C5aR (His6-tag at N-terminal end for AFM tips) (protein)
chain: TLQKKIEEIAAKYKHSVVKKCCYDGACVNNDETCEQRAARISLGPRCIKAFTECCVVASQLRANISHKDMQLGR
modifications: left off: His6, N-terminal, kept
Question: What does the source list for B1?
Answer: signaling of C5aR induced by C5a upon Y11F and Y14F mutations [1]: could almost abolish the signaling of C5aR; drop of the ΔGbu vs wild type (C5aR^D282A; AFM, D282A vs WT): four; binding equilibrium free energy ΔGbu (C5aR^D282A; [4]): -3.4 ± 0.7 kcal/mol; equilibrium force Feq (C5aR^D282A; [4]): 27 ± 3 pN; residence time τ0.5 (C5aR^D282A; FNdY fit, ligand-derivatized AFM tip, 20 mM HEPES, 300 mM NaCl, ≈24 °C): 0.08 ms; C5a binding to C5aR2 upon mutation of three N-terminal tyrosine residues (C5aR2): did not significantly change C5a binding to C5aR2; G-protein coupling at C5aR2 (C5aR2): without any detectable G-protein coupling; β arrestins (βarr) recruitment at C5aR2 (C5aR2): robust β arrestins (βarr) recruitment; residence time τ0.5 (human C5aR (C5aR^WT) [2]; C5a tip vs C5aR^WT incubated with PMX53 (effector site blocked; probes binding site)): 0.2 ms; equilibrium force Feq (human C5aR (C5aR^WT) [2]; [5]): 29 ± 4 pN; free energy ΔGbu (human C5aR (C5aR^WT) [2]; [5]): -3.9 ± 1.8 kcal/mol; binding equilibrium free energy ΔGbu (human C5aR (C5aR^WT) [2]; ± s.e.m., ligand-derivatized AFM tip, 20 mM HEPES, 300 mM NaCl, ≈24 °C): -13.6 ± 4.1 kcal/mol; equilibrium force Feq (human C5aR (C5aR^WT) [2]; ± s.e.m., ligand-derivatized AFM tip, C5aR in DOPC/CHS liposomes on mica, 20 mM HEPES, 300 mM NaCl, ≈24 °C): 46 ± 7 pN; residence time τ0.5 (human C5aR (C5aR^WT) [2]; ligand-derivatized AFM tip, 20 mM HEPES, 300 mM NaCl, ≈24 °C): 0.6 ms; sum of binding free energy of both sites measured individually, ΔGbu (binding site+effector site) (human C5aR (C5aR^WT) [3]): ~-8.6 ± 2.3 kcal/mol
